From article PMC11014265
Read-outs that look alike come from different tables or passages of the source.

T1: HrpA1-630 (Escherichia coli, UniProt P43329 1-630)
T1 sequence: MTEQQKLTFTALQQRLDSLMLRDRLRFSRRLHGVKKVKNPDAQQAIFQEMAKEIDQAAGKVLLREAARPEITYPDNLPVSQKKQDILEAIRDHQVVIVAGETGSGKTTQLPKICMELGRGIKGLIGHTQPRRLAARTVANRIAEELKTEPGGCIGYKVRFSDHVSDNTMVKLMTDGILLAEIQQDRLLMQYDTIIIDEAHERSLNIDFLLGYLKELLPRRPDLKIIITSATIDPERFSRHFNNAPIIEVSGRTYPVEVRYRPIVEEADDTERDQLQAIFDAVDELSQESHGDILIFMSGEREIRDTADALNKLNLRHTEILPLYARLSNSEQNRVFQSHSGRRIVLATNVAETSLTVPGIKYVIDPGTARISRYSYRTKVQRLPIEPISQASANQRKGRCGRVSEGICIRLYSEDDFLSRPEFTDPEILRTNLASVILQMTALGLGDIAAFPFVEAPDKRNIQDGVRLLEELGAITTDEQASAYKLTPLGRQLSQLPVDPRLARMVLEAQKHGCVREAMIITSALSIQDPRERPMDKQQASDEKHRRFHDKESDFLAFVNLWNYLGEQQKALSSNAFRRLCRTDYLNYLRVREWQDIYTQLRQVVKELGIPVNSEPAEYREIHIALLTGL

B1: D-C11 i-motif (structured_DNA)
DNA 1: CCCCCCCCCCC
DNA 2: CCCCCCCCCCC

Key:
HrpA1-630 [1] = target: T1, HrpA1-630; experiment: crystal structure
HrpA1-630 [2] = target: T1, HrpA1-630; experiment: crystal structure; remark: listed apart in the source

| Binder | binding result (HrpA1-630 [1]) | binding result (HrpA1-630 [2]) |
| --- | --- | --- |
| B1 | binds |  |
| CCCCCCCCCCC (ssDNA) [D-C11, C2 complex] |  | binds |
